These results are taken from patent publication US20220227830A1, “QD DOSING OF GIP RECEPTOR AGONIST PEPTIDE COMPOUNDS AND USES THEREOF” (Takeda Pharmaceutical Company Limited, priority 2020, published 2022).

The target of assay [1] is full-length human GLP-1R with an N-terminal FLAG tag (human, UniProt P43220 24-463). Put plainly: cell-based or functional assay.
Assay [2] addresses T1, full-length human GIPR with an N-terminal FLAG tag (human, UniProt P48546 22-466).
T1 sequence (looked up): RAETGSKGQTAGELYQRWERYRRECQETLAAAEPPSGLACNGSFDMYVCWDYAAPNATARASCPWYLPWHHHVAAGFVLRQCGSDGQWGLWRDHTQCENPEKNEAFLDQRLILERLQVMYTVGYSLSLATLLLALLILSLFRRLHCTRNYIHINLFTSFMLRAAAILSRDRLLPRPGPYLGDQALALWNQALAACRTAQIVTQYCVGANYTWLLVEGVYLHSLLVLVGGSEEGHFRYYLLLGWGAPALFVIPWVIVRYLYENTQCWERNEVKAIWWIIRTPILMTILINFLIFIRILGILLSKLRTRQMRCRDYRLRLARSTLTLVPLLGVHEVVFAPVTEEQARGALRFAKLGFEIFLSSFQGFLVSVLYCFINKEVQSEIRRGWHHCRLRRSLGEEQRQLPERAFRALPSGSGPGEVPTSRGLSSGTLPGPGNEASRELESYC
The experiment in a line: cell-based or functional assay.

Residue numbers refer to the chain shown, from its start. Starred links: 1 amine or outer side, 2 acyl side, 3 side chain; linkers in the order of their positions; H or OH if unused. Non-standard residues stand in square brackets, D forms with d. Groups on a side chain read outwards from the residue. No end group written: not given here. *: point of attachment. 2OEGgE = O=C(CC[C@H](N[*:1])C(=O)O)NCCOCCOCC(=O)NCCOCCOCC(=O)[*:2]; G2E3 = linker of 2 Gly and 3 Glu (read GGEEE); C16 diacid = O=C(O)CCCCCCCCCCCCCCC(=O)*; C15 diacid = O=C(O)CCCCCCCCCCCCCC(=O)*; γGlu = O=C(O)[C@H](CCC(=O)[*:2])N[*:1]; NMeY = CN[C@@H](Cc1ccc(O)cc1)C(=O)O; AEEA = NCCOCCOCC(=O)O; Aib = CC(C)(N)C(=O)O

B1: Compound 3 (peptide)
peptide: [NMeY][Aib]EGTFISDYSIAKDR[Aib]AQQNFVNWLLAQK
modifications: not fully specified (residue 14)
For the molecule B1, in assay [1], the “Human GLP1R cAMP HEK293T EC50” value was found to be 692 nM.

B2: Compound 56 (peptide)
peptide: Y[Aib]EGTFISDYSI[Aib]KDR[Aib]AQ[Aib]NFVNWLLAQRPSSGAPPPS-OH
modifications: not fully specified (residues 1, 14)
Take B2: in assay [1], the “Human GLP1R cAMP HEK293T EC50” value was 263 nM. In assay [2], the “Human GIPR cAMP, HEK293T EC50” value was 0.0003 nM.

B3: Compound 5 (peptide)
peptide: [NMeY][Aib]EGTFISDYSIALDRIHQK([AEEA-AEEA-γGlu-C15 diacid])NFVNWLLAQK
modifications: also: Me-Tyr methyl position not given here
As for B3, the “Human GLP1R cAMP HEK293T EC50” value in assay [1] was determined as 955 nM. Besides, the “Human GIPR cAMP, HEK293T EC50” value in assay [2] amounted to 0.0008 nM.

B4: Compound 71 (peptide)
peptide: [NMeY][Aib]EGTFISDYSIALDR[Aib]K([G5gE-C15 diacid])Q[Aib]NFVNWLLAQSPSSGAPPPS-NH2
For B4, the “Human GLP1R cAMP HEK293T EC50” value in assay [1] turned out to be 955 nM. In assay [2], the “Human GIPR cAMP, HEK293T EC50” value stood at 0.0006 nM.

B5: Compound 75 (peptide)
peptide: [NMeY][Aib]EGTFISDYSIALDR[Aib]K([2OEGgE-C15 diacid])Q[Aib]DFVNWLLAQRPSSGAPPPS-NH2
modifications: N-terminus assumed
SMILES: CC[C@H](C)[C@H](NC(=O)[C@H](CO)NC(=O)[C@H](Cc1ccc(O)cc1)NC(=O)[C@H](CC(=O)O)NC(=O)[C@H](CO)NC(=O)[C@@H](NC(=O)[C@H](Cc1ccccc1)NC(=O)[C@@H](NC(=O)CNC(=O)[C@H](CCC(=O)O)NC(=O)C(C)(C)NC(=O)[C@H](Cc1ccc(O)cc1)NC)[C@@H](C)O)[C@@H](C)CC)C(=O)N[C@@H](C)C(=O)N[C@@H](CC(C)C)C(=O)N[C@@H](CC(=O)O)C(=O)N[C@@H](CCCNC(=N)N)C(=O)NC(C)(C)C(=O)N[C@@H](CCCCNC(=O)COCCOCCNC(=O)COCCOCCNC(=O)CC[C@H](NC(=O)CCCCCCCCCCCCCC(=O)O)C(=O)O)C(=O)N[C@@H](CCC(N)=O)C(=O)NC(C)(C)C(=O)N[C@@H](CC(=O)O)C(=O)N[C@@H](Cc1ccccc1)C(=O)N[C@H](C(=O)N[C@@H](CC(N)=O)C(=O)N[C@@H](Cc1c[nH]c2ccccc12)C(=O)N[C@@H](CC(C)C)C(=O)N[C@@H](CC(C)C)C(=O)N[C@@H](C)C(=O)N[C@@H](CCC(N)=O)C(=O)N[C@@H](CCCNC(=N)N)C(=O)N1CCC[C@H]1C(=O)N[C@@H](CO)C(=O)N[C@@H](CO)C(=O)NCC(=O)N[C@@H](C)C(=O)N1CCC[C@H]1C(=O)N1CCC[C@H]1C(=O)N1CCC[C@H]1C(=O)N[C@@H](CO)C(N)=O)C(C)C
Take B5: in assay [1], the “Human GLP1R cAMP HEK293T EC50” value came to 1000 nM. In addition, in assay [2], the “Human GIPR cAMP, HEK293T EC50” value amounted to 0.0011 nM.

B6: Compound 53 (peptide)
peptide: [NMeY][Aib]EGTFISDYSIALDRK([G2E3-C15 diacid])AQ[Aib]NFVNWLLAQSPSSGAPPPS-OH
modifications: also: Me-Tyr methyl position not given here
B6: the “Human GLP1R cAMP HEK293T EC50” value in assay [1] was 617 nM. Further, the “Human GIPR cAMP, HEK293T EC50” value in assay [2] was found to be 0.0001 nM.

B7: Compound 73 (peptide)
peptide: [NMeY][Aib]EGTFISDYSIALDR[Aib]K([G5gE-C15 diacid])Q[Aib]DFVNWLLAQRPSSGAPPPS-NH2
With B7, the “Human GLP1R cAMP HEK293T EC50” value in assay [1] turned out to be 1000 nM. The “Human GIPR cAMP, HEK293T EC50” value in assay [2] amounted to 0.0005 nM.

B8: Compound 63 (peptide)
peptide: [NMeY][Aib]EGTFISDYSIALDRKHQ[Aib]NFVNWLLAQRPSSGAPPPS-NH2
modifications: not fully specified (residue 17)
Turning to B8, in assay [1], the “Human GLP1R cAMP HEK293T EC50” value came to 141 nM. For the same molecule, in assay [2], the “Human GIPR cAMP, HEK293T EC50” value came to 0.0002 nM.

B9: Compound 6 (peptide)
peptide: [NMeY]GEGTFISDYSIAK([2OEGgE-C16 diacid])DRIHQ[Aib]NFVNWLLAQK
modifications: not fully specified
As to B9, the “Human GLP1R cAMP HEK293T EC50” value in assay [1] was 692 nM. In addition, in assay [2], the “Human GIPR cAMP, HEK293T EC50” value was determined as 0.0537 nM.

B10: Compound 4 (peptide)
peptide: [NMeY][Aib]EGTFISDYSIALDRIHQK([AEEA-AEEA-γGlu-C16 diacid])NFVNWLLAQK
modifications: not fully specified
Consider B10, for which the “Human GLP1R cAMP HEK293T EC50” value in assay [1] was 692 nM. Also, the “Human GIPR cAMP, HEK293T EC50” value in assay [2] was found to be 0.0005 nM.

B11: Compound 74 (peptide)
peptide: [NMeY][Aib]EGTFISDYSIALDR[Aib]K([G5gE-C15 diacid])Q[Aib]DFVNWLLAQSPSSGAPPPS-NH2
Take B11: in assay [1], the “Human GLP1R cAMP HEK293T EC50” value was 550 nM. Also, the “Human GIPR cAMP, HEK293T EC50” value in assay [2] is 0.0004 nM.

B12: Compound 76 (peptide)
peptide: [NMeY][Aib]EGTFISDYSIALDR[Aib]K([AEEA-AEEA-γGlu-C15 diacid])Q[Aib]DFVNWLLAQSPSSGAPPPS-NH2
modifications: N-terminus assumed
SMILES: CC[C@H](C)[C@H](NC(=O)[C@H](CO)NC(=O)[C@H](Cc1ccc(O)cc1)NC(=O)[C@H](CC(=O)O)NC(=O)[C@H](CO)NC(=O)[C@@H](NC(=O)[C@H](Cc1ccccc1)NC(=O)[C@@H](NC(=O)CNC(=O)[C@H](CCC(=O)O)NC(=O)C(C)(C)NC(=O)[C@H](Cc1ccc(O)cc1)NC)[C@@H](C)O)[C@@H](C)CC)C(=O)N[C@@H](C)C(=O)N[C@@H](CC(C)C)C(=O)N[C@@H](CC(=O)O)C(=O)N[C@@H](CCCNC(=N)N)C(=O)NC(C)(C)C(=O)N[C@@H](CCCCNC(=O)COCCOCCNC(=O)COCCOCCNC(=O)CC[C@H](NC(=O)CCCCCCCCCCCCCC(=O)O)C(=O)O)C(=O)N[C@@H](CCC(N)=O)C(=O)NC(C)(C)C(=O)N[C@@H](CC(=O)O)C(=O)N[C@@H](Cc1ccccc1)C(=O)N[C@H](C(=O)N[C@@H](CC(N)=O)C(=O)N[C@@H](Cc1c[nH]c2ccccc12)C(=O)N[C@@H](CC(C)C)C(=O)N[C@@H](CC(C)C)C(=O)N[C@@H](C)C(=O)N[C@@H](CCC(N)=O)C(=O)N[C@@H](CO)C(=O)N1CCC[C@H]1C(=O)N[C@@H](CO)C(=O)N[C@@H](CO)C(=O)NCC(=O)N[C@@H](C)C(=O)N1CCC[C@H]1C(=O)N1CCC[C@H]1C(=O)N1CCC[C@H]1C(=O)N[C@@H](CO)C(N)=O)C(C)C
As to B12, in assay [1], the “Human GLP1R cAMP HEK293T EC50” value is 295 nM. The “Human GIPR cAMP, HEK293T EC50” value in assay [2] is 0.0005 nM.

B13: Compound 66 (peptide)
peptide: YXEGTFISDYSIALDRXHQXDFVNWLLAQRPSSGAPPPS
modifications: not fully specified; Me-Tyr1; Aib 2,20; Km17 = Lys(gEgE-C15DA); C-term NH2
B13: the “Human GLP1R cAMP HEK293T EC50” value in assay [1] stood at 1000 nM. Also, the “Human GIPR cAMP, HEK293T EC50” value in assay [2] was determined as 0.0004 nM.

B14: Compound 69 (peptide)
peptide: B13 peptide with R30S
modifications: not fully specified; Me-Tyr1; Aib 2,20; Km17 = Lys(gE-C15DA); C-term NH2
As for B14, the “Human GLP1R cAMP HEK293T EC50” value in assay [1] came to 1000 nM. In addition, in assay [2], the “Human GIPR cAMP, HEK293T EC50” value is 0.0004 nM.

B15: Compound 67 (peptide)
peptide: B13 peptide
modifications: not fully specified; Me-Tyr1; Aib 2,20; Km17 = Lys(gE-C15DA); C-term NH2
In the case of B15, the “Human GLP1R cAMP HEK293T EC50” value in assay [1] turned out to be 525 nM. In addition, the “Human GIPR cAMP, HEK293T EC50” value in assay [2] was 0.0006 nM.

B16: Compound 68 (peptide)
peptide: B13 peptide with R30S
modifications: not fully specified; Me-Tyr1; Aib 2,20; Km17 = Lys(linker printed 'GS'-C15DA); C-term NH2
Regarding B16, the “Human GLP1R cAMP HEK293T EC50” value in assay [1] is 200 nM. Besides, the “Human GIPR cAMP, HEK293T EC50” value in assay [2] came out at 0.0007 nM.

B17: Compound 55 (peptide)
peptide: [NMeY][Aib]EGTFISDYSIALDR[Aib]K([G2E3-C15 diacid])Q[Aib]NFVNWLLAQSPSSGAPPPS-OH
modifications: not fully specified
On to B17, for which the “Human GLP1R cAMP HEK293T EC50” value in assay [1] turned out to be 240 nM. Also, the “Human GIPR cAMP, HEK293T EC50” value in assay [2] is 0.0002 nM.

B18: Compound 51 (peptide)
peptide: Y[Aib]EGTFISDYSIAKDR[Aib]AQ[Aib]NFVNWLLAQSPSSGAPPPS-OH
modifications: not fully specified (residues 1, 14); also: Me-Tyr methyl position not given here
Take B18: the “Human GLP1R cAMP HEK293T EC50” value in assay [1] worked out at 1000 nM. In addition, the “Human GIPR cAMP, HEK293T EC50” value in assay [2] stood at 0.0003 nM.

B19: Compound 70 (peptide)
peptide: [NMeY][Aib]EGTFISDYSIALDR[Aib]AQ[Aib]NFVNWLLAQK([OEGgEgE-C15 diacid])PSSGAPPPS-NH2
With B19, in assay [1], the “Human GLP1R cAMP HEK293T EC50” value was found to be 91.2 nM. The “Human GIPR cAMP, HEK293T EC50” value in assay [2] was 0.0009 nM.

B20: Compound 52 (peptide)
peptide: [NMeY][Aib]EGTFISDYSIALDR[Aib]AQ[Aib]NFVNWLLAQKPSSGAPPPS-OH
modifications: not fully specified (residue 30)
For B20, the “Human GLP1R cAMP HEK293T EC50” value in assay [1] was found to be 240 nM. The “Human GIPR cAMP, HEK293T EC50” value in assay [2] amounted to 0.0003 nM.

B21: Compound 65 (peptide)
peptide: [NMeY][Aib]EGTFISDYSIALDRKHQ[Aib]NFVNWLLAQSPSSGAPPPS-NH2
modifications: not fully specified (residue 17)
Take B21: the “Human GLP1R cAMP HEK293T EC50” value in assay [1] turned out to be 129 nM. Also, in assay [2], the “Human GIPR cAMP, HEK293T EC50” value stood at 0.0003 nM.

B22: Compound 64 (peptide)
peptide: [NMeY][Aib]EGTFISDYSIALDRKHQ[Aib]NFVNWLLAQSPSSGAPPPS-NH2
modifications: not fully specified (residue 17)
On to B22, for which the “Human GLP1R cAMP HEK293T EC50” value in assay [1] came out at 1000 nM. Also, the “Human GIPR cAMP, HEK293T EC50” value in assay [2] worked out at 0.0005 nM.
